The values below come from US20220387586A1 (Hoffmann-La Roche, published 2022).

For the test, the target named is PD1 on PD1+LAG3+ human U2OS cells (UniProt Q15116 25-288). Briefly: cellular PD1/LAG3 dimerization assay on PD1+LAG3+ U2OS cells, chemoluminescence; the signal needs PD1 and LAG3 bound at once. As to the method:
For this specific interaction, the cytosolic C-terminal ends of both receptors were individually fused to heterologous subunits of a reporter enzyme.
On the next day cell medium was discarded and replaced by fresh medium. Antibody or ligand dilutions were prepared and titrated amounts of indicated (bispecific) antibodies were added and incubated at 37° C. for 2 hours. Next, a substrate/buffer mix (e.g. PathHunterFlash detection reagent) was added and again incubated for 1h. For measuring chemoluminescence induced upon simultaneous binding and dimerization a Tecan infinite reader was used.

Chain of PD1 on PD1+LAG3+ human U2OS cells (Q15116 25-288): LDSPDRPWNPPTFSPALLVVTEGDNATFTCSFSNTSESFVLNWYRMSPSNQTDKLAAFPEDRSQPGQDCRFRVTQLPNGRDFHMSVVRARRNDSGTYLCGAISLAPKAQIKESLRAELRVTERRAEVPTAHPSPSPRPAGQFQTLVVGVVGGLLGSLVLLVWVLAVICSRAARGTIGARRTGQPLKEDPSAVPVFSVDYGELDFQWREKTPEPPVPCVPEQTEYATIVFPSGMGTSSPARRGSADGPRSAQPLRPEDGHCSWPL

B1: 0918 (bispecific antibody, human IgG1, kappa, L234A L235A)
heavy chain 1 (aLAG3 25F7 heavy chain, hole, with PD1 0376 VH at the C-terminus): QVQLQQWGAGLLKPSETLSLTCAVYGGSFSDYYWNWIRQPPGKGLEWIGEINHNGNTNSNPSLKSRVTLSLDTSKNQFSLKLRSVTAADTAVYYCAFGYSDYEYNWFDPWGQGTLVTVSSASTKGPSVFPLAPSSKSTSGGTAALGCLVKDYFPEPVTVSWNSGALTSGVHTFPAVLQSSGLYSLSSVVTVPSSSLGTQTYICNVNHKPSNTKVDKKVEPKSCDKTHTCPPCPAPEAAGGPSVFLFPPKPKDTLMISRTPEVTCVVVDVSHEDPEVKFNWYVDGVEVHNAKTKPREEQYNSTYRVVSVLTVLHQDWLNGKEYKCKVSNKALGAPIEKTISKAKGQPREPQVCTLPPSRDELTKNQVSLSCAVKGFYPSDIAVEWESNGQPENNYKTTPPVLDSDGSFFLVSKLTVDKSRWQQGNVFSCSVMHEALHNHYTQKSLSLSPGGGGGSGGGGSGGGGSGGGGSEVQLLESGGGLVQPGGSLRLSCAASGFSFSSYTMSWVRQAPGKGLEWVATISGGGRDIYYPDSVKGRFTISRDNSKNTLYLQMNSLRAEDTAVYYCVLLTGRVYFALDSWGQGTLVTVSS
heavy chain 2 (aLAG3 25F7 heavy chain, knob, with PD1 0376 VL at the C-terminus): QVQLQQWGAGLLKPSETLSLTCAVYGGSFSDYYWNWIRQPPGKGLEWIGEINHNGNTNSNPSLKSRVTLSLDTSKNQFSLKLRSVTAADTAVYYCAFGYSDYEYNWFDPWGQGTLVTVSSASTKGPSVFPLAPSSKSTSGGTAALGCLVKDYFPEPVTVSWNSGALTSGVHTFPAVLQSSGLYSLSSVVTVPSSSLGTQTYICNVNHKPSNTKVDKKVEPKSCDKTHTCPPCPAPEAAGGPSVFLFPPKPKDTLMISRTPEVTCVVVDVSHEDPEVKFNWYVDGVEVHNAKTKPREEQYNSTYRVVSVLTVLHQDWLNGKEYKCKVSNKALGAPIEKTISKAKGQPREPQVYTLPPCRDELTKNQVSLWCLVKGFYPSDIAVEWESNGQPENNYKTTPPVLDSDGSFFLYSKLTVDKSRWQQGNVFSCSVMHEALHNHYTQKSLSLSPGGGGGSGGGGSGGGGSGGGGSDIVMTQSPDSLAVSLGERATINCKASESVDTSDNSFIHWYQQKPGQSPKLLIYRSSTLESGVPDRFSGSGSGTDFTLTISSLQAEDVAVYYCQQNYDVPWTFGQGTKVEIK
light chain (aLAG3 25F7): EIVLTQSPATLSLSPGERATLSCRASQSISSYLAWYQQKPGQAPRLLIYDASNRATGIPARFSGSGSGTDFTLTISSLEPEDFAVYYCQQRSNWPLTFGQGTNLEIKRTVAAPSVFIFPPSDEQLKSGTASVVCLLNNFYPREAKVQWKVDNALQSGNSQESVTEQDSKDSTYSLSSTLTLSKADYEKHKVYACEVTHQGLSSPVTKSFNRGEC
notes: also called PD1/LAG3 0918
A word on the EC50 (read off the curve): it is the concentration giving half of the maximal effect. Read a low EC50 (read off the curve) as greater potency. Turning to B1, the “EC50 (read off the curve)” value is ~0.4 µg/mL.
